How the values were obtained:
[1] = biological target: T1, FGF-4 (Homo sapiens, UniProt P08620); assay: ELISA binding to coated FGF-4; conditions: 50 nM cytokine coated
T1 sequence (P08620 31-206): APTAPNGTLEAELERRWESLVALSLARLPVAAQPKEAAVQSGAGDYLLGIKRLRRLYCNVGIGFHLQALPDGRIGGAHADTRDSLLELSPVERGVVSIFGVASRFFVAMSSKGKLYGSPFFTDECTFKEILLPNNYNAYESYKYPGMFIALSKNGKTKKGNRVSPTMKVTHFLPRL
Procedure: (§1) ELISA plates were coated with cytokines or BSA and further incubated with TNC III1-5 to analyze binding of TNC III1-5 to a wide variety of cytokines. […] Results are depicted in FIG. 3. Method: 50 nM of cytokine was coated for (1 hr, 37° C.). After blocking with 2% BSA (1 hr, RT). 100 nM TNC III1-5 was applied in PBST (0.05% tween, 0.1% bovine serum albumin (BSA)) (1 hr, RT). TNC III1-5 was detected with horseradish peroxidase (HRP)-anti-HIS in PBST (1 hr, RT) and developed with 3,3′,5,5′-tetramethylbenzidine (TMB), a soluble colorimetric HRP […]. Addition of sulfuric acid stop solution changes the color to yellow, enabling accurate measurement of the intensity at 450 nm using a spectrophotometer or plate reader. […] Heparin (4 μM) was added to TNC III1-5 to test the effect of blocking the heparin binding site of TNC III1-5, which has been defined as domain TNC III5 (Weber, Zimmermann, et al., 1995).

[2] = biological target: T2, FGF-17 (Homo sapiens, UniProt O60258); assay: ELISA binding to coated FGF-17; conditions: 50 nM cytokine coated
T2 sequence (O60258 23-216): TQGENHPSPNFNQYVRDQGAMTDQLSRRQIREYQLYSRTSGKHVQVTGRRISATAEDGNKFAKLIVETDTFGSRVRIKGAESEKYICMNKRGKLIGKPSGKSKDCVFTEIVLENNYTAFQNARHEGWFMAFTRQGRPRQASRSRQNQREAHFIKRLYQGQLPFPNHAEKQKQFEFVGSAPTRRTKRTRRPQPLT
Procedure: as §1

[3] = biological target: HGF (Homo sapiens, UniProt P14210); assay: ELISA binding to coated HGF; conditions: 50 nM cytokine coated
Procedure: as §1

[4] = biological target: T3, factor XIIIa (Homo sapiens, UniProt P00488); assay: Transglutaminase substrate activity (TAMRA, fibrinogen, PEG-lysine with factor XIIIa); format: biochemical; conditions: with and without factor XIIIa
T3 sequence (P00488 39-732 limits assumed): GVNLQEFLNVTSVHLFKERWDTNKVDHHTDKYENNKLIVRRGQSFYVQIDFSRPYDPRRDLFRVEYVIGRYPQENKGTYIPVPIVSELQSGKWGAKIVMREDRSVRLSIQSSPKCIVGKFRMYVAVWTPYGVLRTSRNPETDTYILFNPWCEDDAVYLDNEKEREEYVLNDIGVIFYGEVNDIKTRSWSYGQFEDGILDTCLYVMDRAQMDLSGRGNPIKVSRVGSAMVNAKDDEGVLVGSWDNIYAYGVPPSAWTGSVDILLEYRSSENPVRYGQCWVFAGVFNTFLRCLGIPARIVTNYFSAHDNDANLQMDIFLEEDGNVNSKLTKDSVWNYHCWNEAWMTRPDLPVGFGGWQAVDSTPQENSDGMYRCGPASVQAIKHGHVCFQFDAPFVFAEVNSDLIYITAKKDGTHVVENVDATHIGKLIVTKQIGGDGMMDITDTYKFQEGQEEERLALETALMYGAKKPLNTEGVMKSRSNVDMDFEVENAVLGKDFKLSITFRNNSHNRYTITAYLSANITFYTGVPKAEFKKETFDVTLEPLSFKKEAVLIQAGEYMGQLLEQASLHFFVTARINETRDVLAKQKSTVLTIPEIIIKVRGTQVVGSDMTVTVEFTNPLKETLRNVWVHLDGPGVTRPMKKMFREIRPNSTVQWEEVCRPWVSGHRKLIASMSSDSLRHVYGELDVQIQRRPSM
Procedure: The activity of the transglutaminase substrate (TG: NQEQVSPL) (SEQ ID NO:10) of the engineered protein TG-TNC III1-5 was confirmed. FIG. 12 depicts results. Methods: A) The TG activity of TG-TNC III1-5 was tested by reaction with a fluorescent TAMRA molecule, containing lysines, with and without the presence of factor XIIIa, the TAMRA molecule, or TG-TNC III1-5. […] B) The TG activity of TG-TNC III1-5 was tested by reaction with fibrinogen, with and without the presence of factor XIIIa, fibrinogen, or TG-TNC III1-5. Fibrinogen or no protein was coated on an ELISA plate (1 hr, 37° C.), blocked with 2% BSA (1 hr, RT), reacted with or without TG-TNC III1-5 or factor XIIIa C) The TG activity of TG-TNC III1-5 was tested by reaction with PEG-lysines. A robotic spotter was used to bind TG-TNC III1-5 inside 450 μm spots (Gobaa, Hoehnel, et al., 2011), and an immuno-fluorescent stain was used to visualize the location and distribution of TG-TNC III1-5 onto the PEG. D) TG-TNC III1-5 and TG-FN III9*-10,TNC III1-5 (5 μM) were incorporated into a 2% TG-PEG gel. After 2 washed with PBS, 98% and 96% respectively of the fragments was bound into gels, which were sequentially stained with HRP-conjugated anti-HIS, and developed with TMB to read an absorbance at 450 nm.

[5] = biological target: T4, BMP-2/7 (Homo sapiens, UniProt P12643+P18075); assay: ELISA binding to coated BMP-2/7; conditions: 50 nM cytokine coated
T4 sequence (P12643 283-396): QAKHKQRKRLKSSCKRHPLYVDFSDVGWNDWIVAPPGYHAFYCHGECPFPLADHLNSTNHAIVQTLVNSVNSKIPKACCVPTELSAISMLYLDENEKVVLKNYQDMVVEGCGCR
T4 sequence (P18075 293-431): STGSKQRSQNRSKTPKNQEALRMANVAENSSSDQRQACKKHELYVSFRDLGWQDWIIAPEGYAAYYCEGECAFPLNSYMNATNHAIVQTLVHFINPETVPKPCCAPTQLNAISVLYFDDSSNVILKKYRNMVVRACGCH
Procedure: as §1
ELISA plates were coated with cytokines or BSA and further incubated with Fg β15-66 to analyze binding of […] to a wide variety of cytokines. […] Results are depicted in FIG. 4. Method: The methods were analogous to those used in Example 3.

[6] = test system: HUVEC cells; assay: HUVEC proliferation with cytokines with or without fibrinogen or Fg β15-66; format: cell-based, human; conditions: 72 hours; ≧100-fold molar excess; VEGF-A165, PlGF-2, FGF-2
Procedure: To verify that cytokines bound to Fg β15-66 are still bioactive, the proliferation of HUVEC cells was tested for different cytokines with and without the presence of Fg β15-66. Method: HUVEC cells were stimulated with various cytokines: VEGF-A165, PlGF-2, and FGF-2 with or without fibrinogen or Fg β15-66 in excess (≧100-fold molar excess).

Sequence of HGF (P14210 32-728, species assumed): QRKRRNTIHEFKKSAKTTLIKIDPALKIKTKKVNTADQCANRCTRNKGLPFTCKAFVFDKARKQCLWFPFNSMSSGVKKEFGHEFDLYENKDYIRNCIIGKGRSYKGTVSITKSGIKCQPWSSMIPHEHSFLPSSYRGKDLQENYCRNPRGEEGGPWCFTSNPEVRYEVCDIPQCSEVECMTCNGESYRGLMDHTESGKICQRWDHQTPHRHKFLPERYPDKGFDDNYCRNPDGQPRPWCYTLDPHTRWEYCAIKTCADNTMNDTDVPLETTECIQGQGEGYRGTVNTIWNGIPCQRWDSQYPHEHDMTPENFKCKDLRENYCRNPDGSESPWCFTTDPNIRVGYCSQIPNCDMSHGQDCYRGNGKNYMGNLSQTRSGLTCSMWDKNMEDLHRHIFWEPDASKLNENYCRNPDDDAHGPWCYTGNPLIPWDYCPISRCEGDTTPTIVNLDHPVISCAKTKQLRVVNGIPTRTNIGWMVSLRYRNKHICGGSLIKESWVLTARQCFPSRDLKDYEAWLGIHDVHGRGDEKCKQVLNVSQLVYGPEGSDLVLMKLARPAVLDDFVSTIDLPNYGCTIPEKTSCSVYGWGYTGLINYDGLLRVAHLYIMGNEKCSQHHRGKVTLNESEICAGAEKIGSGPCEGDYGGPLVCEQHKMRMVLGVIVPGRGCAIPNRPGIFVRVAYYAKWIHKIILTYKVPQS

B1: TNC III1-5: recombinant tenascin C fibronectin type III repeats 1-5 (E622 to A1074) with transglutaminase substrate NQEQVSPL and 6×His tag, SEQ ID NO:1 (protein)
chain: METDTLLLWVLLLWVPGSTGDAAQPAIEGRNQEQVSPLGGSEVSPPKDLVVTEVTEETVNLAWDNEMRVTEYLVVYTPTHEGGLEMQFRVPGDQTSTIIQELEPGVEYFIRVFAILENKKSIPVSARVATYLPAPEGLKFKSIKETSVEVEWDPLDIAFETWEIIFRNMNKEDEGEITKSLRRPETSYRQTGLAPGQEYEISLHIVKNNTRGPGLKRVTTTRLDAPSQIEVKDVTDTTALITWFKPLAEIDGIELTYGIKDVPGDRTTIDLTEDENQYSIGNLKPDTEYEVSLISRRGDMSSNPAKETFTTGLDAPRNLRRVSQTDNSITLEWRNGKAAIDSYRIKYAPISGGDHAEVDVPKSQQATTKTTLTGLRPGTEYGIGVSAVKEDKESNPATINAATELDTPKDLQVSETAETSLTLLWKTPLAKFDRYRLNYSLPTGQWVGVQLPRNTTSYVLRGLEPGQEYNVLLTAEKGRHKSKPARVKASTEQAGGGSHHHHHH
modifications: Tenascin III signal sequence with polyhistidine tag
[1]
  binding to FGF-4 (ELISA, signal above BSA background): positive binding
[2]
  binding to FGF-17 (ELISA, signal above BSA background): positive binding
[3]
  binding to HGF (ELISA, signal above BSA background): positive binding
[4]
  activity of the transglutaminase substrate (TG: NQEQVSPL): confirmed

B2: Fg β15-66: heparin-binding domain of human fibrinogen β chain aa15-66 (SEQ ID NO:8); construct with TG substrate and His tag, SEQ ID NO:2 (protein)
chain: GSNQEQVSPLGHRPLDKKREEAPSLRPAPPPISGGGYRARPAKAAATQKKVERKAPDAGGCGHHHHHH
modifications: GS linker, transglutaminase substrate, the Fg beta15-66, with a Histidine tag
[5]
  binding to BMP-2/7 (ELISA, signal above BSA background): positive binding
[6]
  synergistic effect on HUVEC proliferation, cytokines plus protein vs cytokines alone: no synergistic effect

Source: patent US9540428B2, “Extracellular matrix heparin-binding domains” (EPFL-TTO, priority 2012, dated 2017)
